Source: US20220125907A1 (VAXCYTE, published 2022)

Molecular target: the molecule itself
Experiment: SEC-MALS of purified IpaB in solution (self-association)

B1: Invasion Plasmid Antigen B (IpaB), wild type, full length (other)
chain: MHNVNTTTTGLSLAKILASTELGDNTIQAGNDAANKLFSLTIADLTANKNINTTNAHSTSNILIPELKAPKSLNASSQLTLLIGNLIQILGEKSLTALTNKITAWKSQQQARQQKNLEFSDKINTLLSETEGLTRDYEKQINKLKNADSKIKDLENKINQIQTRLSELDPDSPEKKKLSREEIQLTIKKDAAVKDRTLIEQKTLSIHSKLTDKSMQLEKEIDSFSAFSNTASAEQLSTQQKSLTGLASVTQLMATFIQLVGKNNEESLKNDLALFQSLQESRKTEMERKSDEYAAEVRKAEELNRVMGCVGKILGALLTIVSVVAAAFSGGASLALADVGLALMVTDAIVQAATGNSFMEQALNPIMKAVIEPLIKLLSDAFTKMLEGLGVDSKKAKMIGSILGAIAGALVLVAAVVLVATVGKQAAAKLAENIGKIIGKTLTDLIPKFLKNFSSQLDDLITNAVARLNKFLGAAGDEVISKQIISTHLNQAVLLGESVNSATQAGGSVASAVFQNSASTNLADLTLSKYQVEQLSKYISEAIEKFGQLQEVIADLLASMSNSQANRTDVAKAILQQTTA
notes: also called WT IpaB; IpaB WT; not shown: histidine tag
**Q.** Does B1 bind?
**A.** binds
